Measured values taken from publication PMC7841149.

Target: integrin α5 on preosteoblastic MC3T3-E1 cells (mouse (endogenous in MC3T3-E1)) (UniProt P11688)
UniProt P11688, sequence (P11688 45-1053): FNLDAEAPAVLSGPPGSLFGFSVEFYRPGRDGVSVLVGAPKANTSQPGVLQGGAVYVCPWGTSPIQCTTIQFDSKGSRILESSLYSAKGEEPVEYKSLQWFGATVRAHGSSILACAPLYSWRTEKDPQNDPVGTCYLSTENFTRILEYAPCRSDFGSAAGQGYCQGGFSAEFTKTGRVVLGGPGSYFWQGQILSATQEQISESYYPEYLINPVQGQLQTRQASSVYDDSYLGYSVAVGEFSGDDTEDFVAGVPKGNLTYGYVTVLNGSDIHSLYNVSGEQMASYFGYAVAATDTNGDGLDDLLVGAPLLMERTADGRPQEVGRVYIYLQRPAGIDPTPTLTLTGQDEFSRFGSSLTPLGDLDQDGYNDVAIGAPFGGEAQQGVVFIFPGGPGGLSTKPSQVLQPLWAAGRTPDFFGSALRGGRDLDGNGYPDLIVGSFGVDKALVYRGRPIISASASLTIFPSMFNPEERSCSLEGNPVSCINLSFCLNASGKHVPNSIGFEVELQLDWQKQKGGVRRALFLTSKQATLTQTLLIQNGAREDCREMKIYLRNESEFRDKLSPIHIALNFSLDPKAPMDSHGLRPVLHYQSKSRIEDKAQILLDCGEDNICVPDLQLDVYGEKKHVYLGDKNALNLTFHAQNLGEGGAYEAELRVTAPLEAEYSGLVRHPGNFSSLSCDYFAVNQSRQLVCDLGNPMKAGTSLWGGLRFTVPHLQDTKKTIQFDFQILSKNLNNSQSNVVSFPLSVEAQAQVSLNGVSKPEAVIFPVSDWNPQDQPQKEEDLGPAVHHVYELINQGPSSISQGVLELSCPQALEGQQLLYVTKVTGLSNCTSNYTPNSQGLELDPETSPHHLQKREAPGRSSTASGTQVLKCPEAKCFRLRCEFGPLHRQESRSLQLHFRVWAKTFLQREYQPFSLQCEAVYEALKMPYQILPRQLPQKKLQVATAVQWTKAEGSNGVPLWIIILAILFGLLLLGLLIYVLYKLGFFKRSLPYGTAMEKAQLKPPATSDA

- forward migration index (FMI) of MC3T3-E1 cells toward a gradient of 150 ng/ml CTGF with neutralizing integrin α5 antibody (5 μg/ml pretreatment, 15 μg/ml in the reservoir), 12 h: 0.02
- forward migration index (FMI) of MC3T3-E1 cells toward a gradient of 150 ng/ml CTGF, μ-slide chemotaxis chamber, 12 h, CTGF group without antibody: 0.5
- migration distance of MC3T3-E1 cells toward a gradient of 150 ng/ml CTGF with neutralizing integrin α5 antibody, 12 h: 129 μm
- migration distance of MC3T3-E1 cells toward a gradient of 150 ng/ml CTGF, 12 h, CTGF group without antibody: 162 μm
- velocity of MC3T3-E1 cells migrating toward a gradient of 150 ng/ml CTGF with neutralizing integrin α5 antibody, 12 h: 0.25 μm/min
- velocity of MC3T3-E1 cells migrating toward a gradient of 150 ng/ml CTGF, 12 h, CTGF group without antibody: 0.32 μm/min
Substance: connective tissue growth factor (CTGF), recombinant (from UniProt P29279 27-349) (ligand)
